From publication PMC10873366, “DNA binding redistributes activation domain ensemble and accessibility in pioneer factor Sox2” (Nature Communications, 2023)

Molecular target: T1, Sox2 C-terminal intrinsically disordered region (C-IDR)
T1 chain: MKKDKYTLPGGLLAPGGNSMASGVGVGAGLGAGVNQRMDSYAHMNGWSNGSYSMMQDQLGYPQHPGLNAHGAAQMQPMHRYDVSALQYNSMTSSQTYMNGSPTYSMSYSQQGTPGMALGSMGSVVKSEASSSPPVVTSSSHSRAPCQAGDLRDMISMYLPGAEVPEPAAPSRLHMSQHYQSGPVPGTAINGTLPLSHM
Assay: NMR titration; 15N-labelled C-IDR titrated with unlabelled N-DBD; 1H15N HSQC chemical shift changes of highly perturbed residues fitted to a 1:1 binding equation; 20 mM NaH2PO4, 50 mM NaCl, 5 mM DTT, pH 5.5, 15 °C
Conditions: both partners purified

B1: Sox2 N-terminal domain and DBD (N-DBD) (domain or fragment)
chain: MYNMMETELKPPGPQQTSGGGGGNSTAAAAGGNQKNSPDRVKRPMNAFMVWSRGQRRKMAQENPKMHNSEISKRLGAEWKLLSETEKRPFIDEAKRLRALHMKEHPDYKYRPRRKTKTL
modifications: Limits are not printed. They are inferred from 109 expected HSQC peaks (119 residues minus 9 Pro and the N-terminal Met) and from the C-IDR starting at 120. The NMR sample was 15N(/13C)-labelled or …
Kd: 80 ± 4 µM
